From article PMC4928780

Target: mucins in cell-free regions of human cervicovaginal mucus (CVM) (human (endogenous in cervicovaginal mucus))
Assay: FRAP (fluorescence recovery after photobleaching); labeled exogenous IgG (0.1–1.5 mg/mL final) stirred into 10 μL of fresh pH-neutralized (pH 6.8–7.1) human CVM, 1 hr at 37°C; about 10 μm x 10 μm ROIs in cell-free regions; recovery half-time against PBS (Dcvm/Dpbs); 7–9 repeats

- Dcvm/Dpbs: 0.8
Substance: Human intravenous immunoglobulin (IVIG), FITC-labeled (antibody)
